Laboratory results reported in patent publication US20180155451A1 (published 2018).
Positions count from the first letter of the chain named. In names and notes the source's numbering stands.

T1: FcγRIIa type H extracellular domain with C-terminal His tag (human, UniProt P12318 34-217)
T1 construct: extracellular domain; also called FcgRIIa H; FcγRIIa H
T1 sequence (looked up): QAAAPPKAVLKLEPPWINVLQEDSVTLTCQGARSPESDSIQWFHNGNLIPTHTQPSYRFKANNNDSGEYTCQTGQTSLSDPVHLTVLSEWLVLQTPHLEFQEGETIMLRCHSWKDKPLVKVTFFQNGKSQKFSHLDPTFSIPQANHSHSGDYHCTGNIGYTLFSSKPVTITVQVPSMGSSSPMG

T2: FcγRIIa type R extracellular domain with C-terminal His tag (human, UniProt P12318 34-217)
T2 construct: extracellular domain; also called FcgRIIa R; FcγRIIa R
T2 sequence (looked up): T1 sequence (looked up) with H134R

T3: FcγRIIb extracellular domain with C-terminal His tag (human, UniProt P31994 43-217)
T3 construct: extracellular domain; also called FcgRIIb
T3 sequence (looked up): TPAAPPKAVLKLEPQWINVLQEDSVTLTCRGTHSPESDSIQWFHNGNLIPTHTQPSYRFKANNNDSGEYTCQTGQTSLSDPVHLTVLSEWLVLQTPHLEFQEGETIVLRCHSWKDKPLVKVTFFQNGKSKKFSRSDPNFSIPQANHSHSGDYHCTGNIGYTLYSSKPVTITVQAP

T4: FcgRIIa R extracellular domain with C-terminal His tag (human, UniProt P12318 34-217)
T4 construct: extracellular domain; also called FcγRIIa R; FcγRIIa type R; not shown: His tag attached to the C terminus
T4 sequence (looked up): T1 sequence (looked up) with H134R

T5: FcgRIIa H extracellular domain with C-terminal His tag (human, UniProt P12318 34-217)
T5 construct: extracellular domain; also called FcγRIIa H; FcγRIIa type H; not shown: His tag attached to the C terminus
T5 sequence (looked up): T1 sequence (looked up)

B1: GpH7-Kn045/GpH7-Hl048/GpL16-k0 (antibody, human IgG1, kappa)
heavy 1: QVQLVQSGAEVKKPGASVTVSCKASGYTFTDYEMHWIRQPPGEGLEWIGAIDPKTGDTAYSESFQDRVTLTADKSTSTAYMELSSLTSEDTAVYYCTRFYSYTYWGQGTLVTVSSASTKGPSVFPLAPSSKSTSGGTAALGCLVKDYFPEPVTVSWNSGALTSGVHTFPAVLQSSGLYSLSSVVTVPSSSLGTQTYICNVNHKPSNTKVDKKVEPKSCDKTHTCPPCPAPEYYAGPSVFLFPPKPKDTLMISRTPEVTCVVVDVSDEDPEVKFNWYVDGVEVHNAKTKPREEQYNATYRVVSVLTVLHQDWLNGKEYKCKVSNKALPAPIEKTISKAKGQPREPQVCTLPPSRDELTKNQVSLWCLVKGFYPSDIAVEWESNGQPENNYKTTPPVLDSDGSFFLYSKLTVDKSRWQQGNVFSCSVMHEALHNHYTQKSLSLSP
heavy 2: QVQLVQSGAEVKKPGASVTVSCKASGYTFTDYEMHWIRQPPGEGLEWIGAIDPKTGDTAYSESFQDRVTLTADKSTSTAYMELSSLTSEDTAVYYCTRFYSYTYWGQGTLVTVSSASTKGPSVFPLAPSSKSTSGGTAALGCLVKDYFPEPVTVSWNSGALTSGVHTFPAVLQSSGLYSLSSVVTVPSSSLGTQTYICNVNHKPSNTKVDKKVEPKSCDKTHTCPPCPAPELLAGPDVFLFPPKPKDTLMISRTPEVTCVVVDVSHEDPEVKFNWYVDGVEVHNAKTKPREEQYNSTYRVVSVLTVLHQDWLNGKEYKCKVSNKALPKPEEKTISKAKGQPREPQVYTLPPSRCELTKNQVSLSCAVKGFYPSDIAVEWESNGQPENNYKTTPPVLDSDGSFFLVSKLTVDKSRWQQGNVFSCSVMHEALHNHYTQKSLSLSP
light: DIVMTQSPLSLPVTPGEPASISCQASESLVHSNRNTYLHWYLQKPGQSPQLLIYKVSNRFSGVPDRFSGSGSGTDFTLKISRVEAEDVGVYYCSQNTHVPPTFGQGTKVEIERTVAAPSVFIFPPSDEQLKSGTASVVCLLNNFYPREAKVQWKVDNALQSGNSQESVTEQDSKDSTYSLSSTLTLSKADYEKHKVYACEVTHQGLSSPVTKSFNRGEC
notes: Heterodimerized anti-glypican-3 IgG1; also called Kn045/Hl048
B2: GpH7-Kn056/GpH7-Hl055/GpL16-k0 (antibody, human IgG1, kappa)
heavy 1: B1 heavy 1 with Q293L
heavy 2: B1 heavy 2 with Q293L, K328M
light: B1 light
notes: Heterodimerized anti-glypican-3 IgG1; also called Kn056/Hl055
B3: GpH7-Kn045/GpH7-Hl055/GpL16-k0 (antibody, human IgG1, kappa)
heavy 1: B1 heavy 1
heavy 2: B1 heavy 2 with Q293L, K328M
light: B1 light
notes: Heterodimerized anti-glypican-3 IgG1; also called Kn045/Hl055
B4: GpH7-Kn033/GpH7-Hl033/GpL16-k0 (antibody, human IgG1, kappa)
heavy 1: not shown
heavy 2: not shown
light: B1 light
notes: Anti-glypican-3 IgG1 with knobs-into-holes only (knob Y349C/T366W; hole D356C/T366S/L368A/Y407V); also called Kn033/Hl033
B5: GpH7-Kn032/GpH7-Hl032/GpL16-k0 (antibody, human IgG1, kappa)
heavy 1: B1 heavy 2 with A234G, K328L, Y347C, C354D, S364W, A366L, V405Y
heavy 2: B1 heavy 2 with A234G, K328L
light: B1 light
notes: S239D/A330L/I332E in both H chains (called homodimerized); also called Kn032/Hl032
B6: GpH7-Kn045/GpH7-Hl048/GpL16-k0 (antibody, human IgG1, kappa)
heavy 1: B1 heavy 1
heavy 2: B1 heavy 2
light: B1 light
notes: Knob chain L234Y/L235Y/G236A/H268D/S298A; hole chain G236A/S239D/A330K/I332E; also called Kn045/Hl048
B7: GpH7-Kn037/GpH7-Hl036/GpL16-k0 (antibody, human IgG1, kappa)
heavy 1: B1 heavy 2 with K328A, Y347C, C354D, S364W, A366L, V405Y
heavy 2: B1 heavy 2 with K328A
light: B1 light
notes: G236A/S239D/I332E in both H chains (called homodimerized); also called Kn037/Hl036
B8: GpH7-Kn045/GpH7-Hl055/GpL16-k0 (antibody, human IgG1, kappa)
heavy 1: B1 heavy 1
heavy 2: B1 heavy 2 with Q293L, K328M
light: B1 light
notes: Knob chain L234Y/L235Y/G236A/H268D/S298A; hole chain G236A/S239D/Q295L/A330M/I332E; also called Kn045/Hl055
B9: GpH7-Kn056/GpH7-Hl055/GpL16-k0 (antibody, human IgG1, kappa)
heavy 1: B1 heavy 1 with Q293L
heavy 2: B1 heavy 2 with Q293L, K328M
light: B1 light
notes: Knob chain L234Y/L235Y/G236A/H268D/Q295L/S298A; hole chain G236A/S239D/Q295L/A330M/I332E; also called Kn056/Hl055

target: T6, FcγRIa extracellular domain with C-terminal His tag (human, UniProt P12314 16-292); test: SPR (Biacore T100), ratio of KD values
T6 construct: extracellular domain; also called FcgRIa; FcgRI
Method: (§1) These antibodies were assessed for the binding activity to each FcγR according to the method described in Reference Example 2.
(§2) Analysis of interaction between objective antibody and the FcγR was carried out using Biacore T100 (GE Healthcare). HBS-EP+ (GE Healthcare) was used as the running buffer, and the measurement temperature was set to 25° C. Chips produced by immobilizing the antigen peptide by the amine coupling method to a Series S Sencor Chip CM5 (GE Healthcare), or alternatively, chips produced by allowing preliminarily biotinylated antigen peptides to interact with and immobilize onto a Series S Sensor Chip SA (certified) (GE Healthcare) were used. Antibodies of interest were captured onto an antigen peptide-immobilized chip, and allowed to interact to each FcγR diluted with running buffer. To regenerate and repeatedly use the chip, the antibodies captured on the chip were washed off by reacting 10 mM glycine-HCl, pH 1.5.
(§3) The FcγR-binding activity of each antibody was assessed primarily using as an indicator the FcγR-binding activity and dissociation constant for FcγR.

T6 sequence (P12314 16-292): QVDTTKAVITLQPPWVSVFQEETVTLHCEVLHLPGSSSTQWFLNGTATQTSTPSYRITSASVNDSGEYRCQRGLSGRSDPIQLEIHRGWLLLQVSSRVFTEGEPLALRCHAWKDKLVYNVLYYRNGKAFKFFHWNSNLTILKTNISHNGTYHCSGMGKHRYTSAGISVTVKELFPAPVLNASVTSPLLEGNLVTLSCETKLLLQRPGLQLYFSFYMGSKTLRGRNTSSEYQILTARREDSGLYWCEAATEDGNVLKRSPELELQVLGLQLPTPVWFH

| KD ratio | Binder |
| --- | --- |
| 3.7 fold (KD of GpH7-Kn033/GpH7-Hl033/GpL16-k0 divided by KD of this antibody) | B1 |
| 2.9 fold (KD of GpH7-Kn033/GpH7-Hl033/GpL16-k0 divided by KD of this antibody) | B2 |
| 3.7 fold (KD of GpH7-Kn033/GpH7-Hl033/GpL16-k0 divided by KD of this antibody) | B3 |

target: T1, FcγRIIa type H extracellular domain …; test: SPR (Biacore T100), ratio of KD values
Method: as §1, §2, §3

| KD ratio | Binder |
| --- | --- |
| 52 fold (KD of GpH7-Kn033/GpH7-Hl033/GpL16-k0 divided by KD of this antibody) | B1 |
| 20 fold (KD of GpH7-Kn033/GpH7-Hl033/GpL16-k0 divided by KD of this antibody) | B2 |
| 21 fold (KD of GpH7-Kn033/GpH7-Hl033/GpL16-k0 divided by KD of this antibody) | B3 |

target: T2, FcγRIIa type R extracellular domain …; test: SPR (Biacore T100), ratio of KD values
Method: as §1, §2, §3

| KD ratio | Binder |
| --- | --- |
| 154 fold (KD of GpH7-Kn033/GpH7-Hl033/GpL16-k0 divided by KD of this antibody) | B1 |
| 44 fold (KD of GpH7-Kn033/GpH7-Hl033/GpL16-k0 divided by KD of this antibody) | B2 |
| 56 fold (KD of GpH7-Kn033/GpH7-Hl033/GpL16-k0 divided by KD of this antibody) | B3 |

target: T3, FcγRIIb extracellular domain with …; test: SPR (Biacore T100), ratio of KD values
Method: as §1, §2, §3

| KD ratio | Binder |
| --- | --- |
| 34 fold (KD of GpH7-Kn033/GpH7-Hl033/GpL16-k0 divided by KD of this antibody) | B1 |
| 14 fold (KD of GpH7-Kn033/GpH7-Hl033/GpL16-k0 divided by KD of this antibody) | B2 |
| 15 fold (KD of GpH7-Kn033/GpH7-Hl033/GpL16-k0 divided by KD of this antibody) | B3 |

target: T7, FcγRIIIa type F extracellular domain with C-terminal His tag (human, UniProt P08637 17-208); test: SPR (Biacore T100), ratio of KD values
T7 construct: extracellular domain; also called FcgRIIIa F; FcγRIIIa F
Method: as §1, §2, §3

T7 sequence (P08637 17-208): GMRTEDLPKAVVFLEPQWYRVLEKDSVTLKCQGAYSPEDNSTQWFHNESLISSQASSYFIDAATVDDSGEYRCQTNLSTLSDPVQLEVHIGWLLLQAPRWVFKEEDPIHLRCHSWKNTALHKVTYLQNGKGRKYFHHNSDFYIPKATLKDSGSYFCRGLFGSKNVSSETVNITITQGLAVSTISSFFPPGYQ

| KD ratio | Binder |
| --- | --- |
| 419 fold (KD of GpH7-Kn033/GpH7-Hl033/GpL16-k0 divided by KD of this antibody) | B1 |
| 1110 fold (KD of GpH7-Kn033/GpH7-Hl033/GpL16-k0 divided by KD of this antibody) | B2 |
| 985 fold (KD of GpH7-Kn033/GpH7-Hl033/GpL16-k0 divided by KD of this antibody) | B3 |

target: T8, FcγRIIIa type V extracellular domain with C-terminal His tag (human, UniProt P08637 17-208); test: SPR (Biacore T100), ratio of KD values
T8 construct: extracellular domain; also called FcgRIIIa V; FcγRIIIa V
Method: as §1, §2, §3

T8 sequence (P08637 17-208 F176V): as the sequence (P08637 17-208) above, with F160V counted along it

| KD ratio | Binder |
| --- | --- |
| 170 fold (KD of GpH7-Kn033/GpH7-Hl033/GpL16-k0 divided by KD of this antibody) | B1 |
| 327 fold (KD of GpH7-Kn033/GpH7-Hl033/GpL16-k0 divided by KD of this antibody) | B2 |
| 300 fold (KD of GpH7-Kn033/GpH7-Hl033/GpL16-k0 divided by KD of this antibody) | B3 |

target: T4, FcgRIIa R extracellular domain with …; test: ratio of SPR (Biacore) KDs, FcγRIIb as reference; antibody captured on chip, FcγR as analyte
Method: as §1, §2, §3

| A/I ratio (KD for FcγRIIb / KD for FcγRIIa R) | Binder |
| --- | --- |
| 4.9 | B4 |
| 1.8 | B5 |
| 22 | B6 |
| 13 | B7 |
| 18 | B8 |
| 16 | B9 |

target: T5, FcgRIIa H extracellular domain with …; test: as above
Method: as §1, §2, §3

| A/I ratio (KD for FcγRIIb / KD for FcγRIIa H) | Binder |
| --- | --- |
| 6.2 | B4 |
| 0.93 | B5 |
| 9.5 | B6 |
| 8.6 | B7 |
| 8.3 | B8 |
| 8.7 | B9 |

target: T6, FcγRIa extracellular domain with …; test: SPR (Biacore T100), antibody captured on antigen-peptide chip, FcγR analyte, 1:1 Langmuir fit
Method: as §1, §2, §3

| Kd [nM] | Binder |
| --- | --- |
| 0.019 | B1 |
| 0.023 | B2 |
| 0.019 | B3 |

target: T1, FcγRIIa type H extracellular domain …; test: as above
Method: as §1, §2, §3

| Kd [nM] | Binder |
| --- | --- |
| 11 | B1 |
| 30 | B2 |
| 29 | B3 |

target: T2, FcγRIIa type R extracellular domain …; test: as above
Method: as §1, §2, §3

| Kd [nM] | Binder |
| --- | --- |
| 4.8 | B1 |
| 17 | B2 |
| 13 | B3 |

target: T3, FcγRIIb extracellular domain with …; test: as above
Method: as §1, §2, §3

| Kd [nM] | Binder |
| --- | --- |
| 110 | B1 |
| 260 | B2 |
| 240 | B3 |

target: T7, FcγRIIIa type F extracellular domain …; test: as above
Method: as §1, §2, §3

| Kd [nM] | Binder |
| --- | --- |
| 3.7 | B1 |
| 1.4 | B2 |
| 1.6 | B3 |

target: T8, FcγRIIIa type V extracellular domain …; test: as above
Method: as §1, §2, §3

| Kd [nM] | Binder |
| --- | --- |
| 1.3 | B1 |
| 0.66 | B2 |
| 0.72 | B3 |
